Results reported in paper PMC4335783, “A novel psychrophilic alkaline phosphatase from the metagenome of tidal flat sediments” (BMC Biotechnology, 2015).

Tested on: T1, O=[N+]([O-])c1ccc(OP(=O)(O)O)cc1
T1 construct: printed as 527 residues, 56 kDa; C-terminal factor Xa site and His6 tag; E. coli BL21(DE3) periplasm; monomer
Experiment: purified protein
Format: biochemical, uncultured bacterium
Conditions: 37 °C, pH 9.0, 50 mM DEA, 0.5 mM CaCl2

Substance: mAP (metagenome-derived alkaline phosphatase) (uncultured bacterium)
- Km: 180 µM
- kcat: 952 s⁻¹
- kcat/Km: 5.3e+06 M⁻¹ s⁻¹
